Here are results for 20 sequences from the nanobody polyreactivity screen of Harvey et al. (2022).

The nature of the data set: yeast display, Sf9 membrane polyspecificity reagent, FACS + sequencing; frameworks hold sequencing errors. The method in brief: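 Genes from sorted yeast were amplified by colony PCR, read by MiSeq 2 × 250 sequencing and filtered on CDR length. These cells carried a synthetic nanobody library in Saccharomyces cerevisiae BJ5465 and were sorted by FACS into low and high (top ~1%) gates on anti-HA and streptavidin fluorescence. Polyreactivity is labelled according to the gate of origin.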
In the case of “QVQLVESGGGLVQAGGSLRLSCASSVRIFEVYAMGSYRQAPGKERELVADITYSGGSTYYADSVKGRFTISRDNAMNTVYLQMNSLKPEDTAVYYCAADVTFVHRYEYYRSYDYWGQGTQVTVSS”, the “polyreactivity (PSR sort gate)” value was “low polyreactivity”.
“QVQLVESGGGLVQAGGSLRLSCATSGFTLLKNAMGWYRQAPGKERELVAAIRQRGTTTYYADSVKGRFTISRDNAKNTVYLQMNSLKPEDTAVYSCNAGRRTGRYGYWGQGTQVTVSS”: the “polyreactivity (PSR sort gate)” value was “high polyreactivity”.
Take “QVQLVESGGGLVQAGGSLRLSCAVSGGLFSFYAMGWYRQAPGKERELVAAISSGGTTYYADSVKGRFTISRDNAKNTVYLQMNSLKPEDTAVYYCALLVGHNYWGQGTQVTVSS”: the “polyreactivity (PSR sort gate)” value is “low polyreactivity”.
Under “QVQLVESGGGLVQAGGSLRLSCCASGFTVSSYARAWYRQAPGKERELVAAITYRGGSTYYADSVKGRFTISRDNAKNTVFLLMNSLKPEDTAVYYCAARWGYRMYWGQGTQVTVSS” stands “high polyreactivity”.
Under “QVQLVESGGGLVQAGGSLRLSCDASGFIFGYYAMGWYRHAPGKERELVAAISRGDTSTYYADSVKGRFTISRDNAKNTVYLQMYSLKPEDTAVYYCAADWTGYGYYYWGQGTQVTVSS” stands “low polyreactivity”; under “QVQLVESGGGLVQAGGSLRLSCDASGFIFPYYAMGWYRQAPGKERELVARITRGGRTYYADSVKGRFTISRDNAKNTVYLQMNSLKPEDTAVYYCATTGSSYFHSFEYDYWGQGTQVTVSS”, “low polyreactivity”.
For “QVQLVESGGGLVQAGGSLRLSCDASGFIFTGNVMGWYRQAPGKERELVAGITYTSGSTYYADSVKGRFTISRDYAKNTVYLQMNSLKPEDTAVYYCAAEITRHYVFGDDYWGQGTQVTVSS”, the “polyreactivity (PSR sort gate)” value is “low polyreactivity”.
Regarding “QVQLVESGGGLVQAGGSLRLSCDASGFTFRAYPIGWYREAPGKERELVAAITYSGGRTYYADSVKGRFTISRDNAKNTVYLQMNSLKPEDTAVYYCANYDYWGQGTQVTVSS”, the “polyreactivity (PSR sort gate)” value was “high polyreactivity”.
As to “QVQLVESGGGLVQAGGSLRLSCDASGFTFYRYAMGWYRQAPGKERELVAAISSSGSSTYYADSVKGRFTISRDNAKNTVYLQMNSLKPEDTAVYYCAKRLGGSRPYYYWGQGTQVTVSS”, the “polyreactivity (PSR sort gate)” value is “high polyreactivity”.
Turning to “QVQLVESGGGLVQAGGSLRLSCDASGIIFPRYAMGGYRQAPGKERELVAAITIGGRTNYADSVKGRFTISRDNAKNTVYLQMTSLKPEDTAVYYCAAQTYVPYYEYDYWGQGTQVTVSS”, the “polyreactivity (PSR sort gate)” value was “low polyreactivity”.
Regarding “QVQLVESGGGLVQAGGSLRLSCDASGIIFQYYAMGWYRHAPGKERELVAAISWSGGSTYYADSVKGRFTISRDNAKNTVYLQMNSLKPEDTAVYFCAARSRSFWPYEGDYWGQGTQVTLSS”, the “polyreactivity (PSR sort gate)” value is on record as “low polyreactivity”.
Under “QVQLVESGGGLVQAGGSLRLSCDASGITFDDYSRGWYRQAPGKERELVAAISGSGGSTYYADSVKGRFTISRDNAKNTVFLQMHSLKPEDTAVYYCAASGPEGQYLWYDYWGKGTQVTVSS” stands “high polyreactivity”.
As to “QVQLVESGGGLVQAGGSLRLSCDASGITFGYYAMGWYRQAPGKERELVAAISNSGRTYYADSVKGRFTISRDNAKNSVYLQMNSLKPEDTAVYYCAADDAYYDFYFWGQGTQVTVSS”, the “polyreactivity (PSR sort gate)” value was “low polyreactivity”.
Consider “QVQLVESGGGLVQAGGSLRLSCDASGITSHWYVMGWYRQAPGKERELVAAINSSGGRTSYADSVKGRFTISRDNAKNTVYLQMNSLKPEYTAVYYCAAGYTHSYFLGATGKVDYWGQGTQVTVSS”, for which the “polyreactivity (PSR sort gate)” value is listed as “low polyreactivity”.
Under “QVQLVESGGGLVQAGGSLRLSCDASGLIFYSNAMGWYRQAPGKERELVAAISSSGGSTYYADCVKGRFTISRDNAKNTVYLQMNSLKPEDTAVYFCAAAGDDYWGQGTQVTVSS” stands “low polyreactivity”; under “QVQLVESGGGLVQAGGSLRLSCDASGLTFRLYTMGWYRQAPGKETELGAAITYSGDSTYYADSVKGRFTISRDNAKNTDYLQMNSLKPEDTAVYYCAARKYYARYYWGQGTQVTVSW”, “high polyreactivity”; under “QVQLVESGGGLVQAGGSLRLSCDASGLTFSWYAMGWSRQAPGKERELVAAISRSGGSTYYADSVKGRFSISRDKAKNTVYLQMNSLKPEDTGVYYCAAETDIAPDYDYWGQGTQVTVSS”, “low polyreactivity”.
On to “QVQLVESGGGLVQAGGSLRLSCDASGNTYLNALGWYRQAPGKERELVAAISKGGADTYYADSVKGRFTISRDNAKNTVYLQMNSLKPEDTAVYYCAADGYADGWWVEYPWTYDYWGQGTQVTVSS”, for which the “polyreactivity (PSR sort gate)” value is listed as “low polyreactivity”.
For “QVQLVESGGGLVQAGGSLRLSCDASGRIFGYYTMGWYRQAPGKERELVAAISNSGVSTYYADSVKGRFTISRDNAKNTVYLQMNSLKPEDTAVYYCNARLYSYYKFNYWGQGTQVTVSS”, the “polyreactivity (PSR sort gate)” value is recorded as “high polyreactivity”.
To “QVQLVESGGGLVQAGGSLRLSCDASGRIFYFYAMGWYRQAPGKESELVAAISTSGGSTYYADSVKGRFTISRDNAKNTVYLQMNSLKPEDTAVYYCAARYRYYGSEYDYWGQGTQVTVSS” belongs “low polyreactivity”.
